# Patent US20070020327A1
# Assays:
# [1] = target: HLA-B*0702 (human); assay: competition with 125I-labelled standard peptide on purified HLA-B*0702, gel filtration; standard 1075.23 [..], […]
# [2] = target: HLA-A*0206 (human); assay: competition with 125I-labelled standard peptide for purified HLA, gel filtration; details: for binding affinity ratio: scale: ratio
# [3] = target: HLA-A*0202 (human); assay: as above
# [4] = target: HLA-A*6802 (human); assay: as above; details: for binding affinity ratio: scale: ratio
# [5] = target: HLA-A*0201 (human); assay: as above; details: for binding affinity ratio: scale: ratio
# [6] = target: HLA-A*0203 (human); assay: as above; details: for binding affinity ratio: scale: ratio
# [7] = target: HLA-A*0203 (human); assay: inhibition of 125I-labelled probe peptide binding to purified HLA, gel filtration; details: remark: other sources report otherwise
# [8] = target: HLA-A*1101 (human); assay: competition with 125I-labelled standard peptide on purified HLA-A*1101, gel filtration
Binder,binding affinity ratio (IC50 of standard peptide / IC50 of test peptide) [2],binding affinity ratio (IC50 of standard peptide / IC50 of test peptide) [3],binding affinity ratio (IC50 of standard peptide / IC50 of test peptide) [4],binding affinity ratio (IC50 of standard peptide / IC50 of test peptide) [5],binding affinity ratio (IC50 of standard peptide / IC50 of test peptide) [6],further results
"PPPPGYENV (modifications not checked) [… (PSM, position 146, 9 amino acids)]",–,–,–,–,–,binding affinity ratio (IC50 of standard peptide / IC50 of test peptide) [1]: 0.0001
"SPSCPLERFA (modifications not checked) [… (PSA as printed, position 348, 10 amino acids)]",–,–,–,–,–,binding affinity ratio (IC50 of standard peptide / IC50 of test peptide) [1]: 0.0002
"SPEFSGMPRI (modifications not checked) [… (PSM, position 503, 10 amino acids)]",–,–,–,–,–,binding affinity ratio (IC50 of standard peptide / IC50 of test peptide) [1]: 0.002
PLIQSRIV (modifications not checked) [Kallikrein 19 PLIQSRIV],-0.0001,0.0002,-0.0001,0.0001,-0.0001,–
PAELTDAV (modifications not checked) [PSA 125 PAELTDAV],-0.0001,-0.0001,-0.0001,-0.0001,-0.0001,–
"SLLKHQSL (modifications not checked) [Kallikrein (hK2) peptide SLLKHQSL (position 104, 8 amino acids)]",–,–,–,–,–,binding affinity ratio [2]: -0.0001; binding affinity ratio [4]: -0.0001; binding affinity ratio [5]: 0.0002; binding affinity ratio [6]: 0.0002
FLRPRSLQCV (modifications not checked) [Peptide 1419.07 (HuK2.165) …],–,–,–,–,–,IC50 [7]: 4.2 nM
"LVFRHGDR (modifications not checked) [PAP peptide LVFRHGDR (position 40, 8 amino acids)]",–,–,–,–,–,binding affinity ratio (IC50 of standard peptide / IC50 of test peptide) [8]: 0.0002
"SPQGMPEGDL (modifications not checked) [… (PSM, position 165, 10 amino acids)]",–,–,–,–,–,binding affinity ratio (IC50 of standard peptide / IC50 of test peptide) [1]: 0.0002
HLLSNDMCARA (modifications not checked) [Peptide 1419.15 (HuK2.177) …],–,–,–,–,–,IC50 [7]: 250 nM
"SLFHPEDT (modifications not checked) [PSA peptide SLFHPEDT (position 75, 8 amino acids)]",–,–,–,–,–,binding affinity ratio [2]: -0.0001; binding affinity ratio [4]: -0.0001; binding affinity ratio [5]: 0.0003
"SVGCTGAV (modifications not checked) [Kallikrein (hK2) peptide SVGCTGAV (position 11, 8 amino acids)]",–,–,–,–,–,binding affinity ratio [2]: 0.0003; binding affinity ratio ([3]; scale: ratio): 0.0006; binding affinity ratio [4]: -0.0001; binding affinity ratio [6]: 0.0022
"PPGYENVSDI (modifications not checked) [… (PSM, position 148, 10 amino acids)]",–,–,–,–,–,binding affinity ratio (IC50 of standard peptide / IC50 of test peptide) [1]: 0.0001

# Second part, led by results:
binding affinity ratio (IC50 of standard peptide / IC50 of test peptide) [2],binding affinity ratio (IC50 of standard peptide / IC50 of test peptide) [3],binding affinity ratio (IC50 of standard peptide / IC50 of test peptide) [4],binding affinity ratio (IC50 of standard peptide / IC50 of test peptide) [5],binding affinity ratio (IC50 of standard peptide / IC50 of test peptide) [6],Binder,further results
-0.0001,0.0028,-0.0001,0.0003,0.0008,PAELTDAVKVM (modifications not checked) [PSA 125 …],–
-0.0001,0.0003,-0.0001,0.0001,-0.0001,PAKITDVV (modifications not checked) [Kallikrein 129 PAKITDVV],–
-0.0001,-0.0001,-0.0001,0.0001,-0.0001,PAVYTKVV (modifications not checked) [Kallikrein 240 PAVYTKVV],–
-0.0001,0.0008,-0.0001,0.0002,0.0002,PLYNMSLL (modifications not checked) [Kallikrein 99 PLYNMSLL],–
